The target in test [1] is T1, cynomolgus IL-17F homodimer (cynomolgus, UniProt G7P4V0 31-163).
T1 construct: range 31-163; Produced in house in PEAK cells, His-tagged, predominantly disulfide-linked homodimer; also called cyIL-17F; cnIL-17F; not shown: N-terminal His tag
T1 sequence: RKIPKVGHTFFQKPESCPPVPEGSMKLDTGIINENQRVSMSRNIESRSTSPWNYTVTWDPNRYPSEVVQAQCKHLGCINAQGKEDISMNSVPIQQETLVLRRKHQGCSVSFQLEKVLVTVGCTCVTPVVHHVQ
The experiment in a line: FLISA, cytokine on beads.

Test [2] deals with T2, cynomolgus IL-17A homodimer (cynomolgus, UniProt A0A2K5TTB0 20-155).
T2 construct: Produced in house in PEAK cells, His-tagged, predominantly disulfide-linked homodimer; also called cyIL-17A; cnIL-17A; not shown: N-terminal His tag
T2 sequence: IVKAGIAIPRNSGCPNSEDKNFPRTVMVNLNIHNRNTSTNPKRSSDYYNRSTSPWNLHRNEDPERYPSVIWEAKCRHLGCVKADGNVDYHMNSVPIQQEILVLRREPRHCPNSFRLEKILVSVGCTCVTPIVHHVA
The experiment in a line: FLISA, cytokine on beads.

For test [3], the target named is T3, human IL-17A homodimer (human, UniProt Q16552 20-155, limits assumed).
T3 sequence (looked up): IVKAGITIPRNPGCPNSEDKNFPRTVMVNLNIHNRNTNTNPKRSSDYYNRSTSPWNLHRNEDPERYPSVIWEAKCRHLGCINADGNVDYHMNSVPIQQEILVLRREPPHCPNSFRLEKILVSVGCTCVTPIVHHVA
The experiment in a line: cell-based or functional assay.

In test [4] the target is T4, human IL-17A/IL-17F heterodimer (human, UniProt Q16552 24-155; Q96PD4 31-163, limits assumed).
T4 sequence (looked up) 1: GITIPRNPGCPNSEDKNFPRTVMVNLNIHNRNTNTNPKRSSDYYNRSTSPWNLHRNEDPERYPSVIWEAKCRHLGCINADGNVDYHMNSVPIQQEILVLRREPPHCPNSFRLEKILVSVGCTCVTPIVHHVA
T4 sequence (looked up) 2: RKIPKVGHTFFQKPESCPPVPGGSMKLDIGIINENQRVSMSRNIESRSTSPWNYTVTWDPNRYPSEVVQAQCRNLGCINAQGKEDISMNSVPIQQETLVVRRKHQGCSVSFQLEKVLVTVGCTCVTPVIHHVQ
The test can be described thus: cell-based or functional assay.

Test [5] addresses T3, human IL-17A homodimer. The experiment in a line: cell-based or functional assay. This is another data set of the same source.
For test [6], the target named is T2, cynomolgus IL-17A homodimer. The experiment in a line: cell-based or functional assay.
Test [7] concerns the target cynomolgus IL-17A/IL-17F heterodimer (cynomolgus). The test can be described thus: cell-based or functional assay.
Test [8] addresses T1, cynomolgus IL-17F homodimer. The test can be described thus: cell-based or functional assay.
For the next test, the target named is T5, rat IL-17A homodimer (rat, UniProt Q61453 18-150, limits assumed).
T5 sequence (looked up): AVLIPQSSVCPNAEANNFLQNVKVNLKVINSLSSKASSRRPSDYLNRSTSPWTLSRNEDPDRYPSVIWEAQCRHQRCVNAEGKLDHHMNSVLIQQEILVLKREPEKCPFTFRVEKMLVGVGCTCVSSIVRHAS
The experiment in a line: cell-based or functional assay.

A further test deals with T6, rat IL-17F homodimer (rat, UniProt Q5BJ95 29-161).
T6 sequence (looked up): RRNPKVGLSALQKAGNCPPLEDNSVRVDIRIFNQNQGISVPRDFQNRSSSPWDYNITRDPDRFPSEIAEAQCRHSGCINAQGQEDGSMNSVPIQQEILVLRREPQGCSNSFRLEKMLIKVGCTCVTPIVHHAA
The experiment in a line: cell-based or functional assay.

Test [9] concerns the target T2, cynomolgus IL-17A homodimer. The test can be described thus: cell-based or functional assay. The source holds these as a separate data set.

The values that follow come from US20130195872A1 (NOVIMMUNE S A, published 2013).

B1: 4B11 antibody (antibody, IgG1, V domains shown)
VH: QLQLQESGPGLVKPSETLSLTCAVSDDYISSRSYYWGWIRQPPGKGLEWIGSIYYSGSTYYNPSLKSRVTISVDTSKNQFSLKVSSVTATDTAVYYCARVSGWNGNWFDPWGQGTLVTVSS
VL: not shown
notes: also called 4B11 IgG1
For the molecule B1, the binding result in test [1] and in test [2] was “binds” throughout. Moreover, the “IC50, IL-6 secretion by HFFF2 human fibroblasts, cytokine at 25 ng/ml” value with human IL-17A homodimer [3] is more than 1000 nM. Besides, in test [4], the “IC50, IL-6 secretion by MEF cells, cytokine at 17.5 ng/ml” value (from here on “IC50, IL-6 secretion … at 17.5 ng/ml”) amounted to 810 nM. In the test with human IL-17A homodimer [5], the “IC50, IL-6 secretion by MEF cells, cytokine at 5 ng/ml” value (“IC50, IL-6 secretion … at 5 ng/ml” for short) came to 680 nM.

B2: 4H11 antibody (antibody, IgG1, V domains shown)
VH: EVQLVESGGGLVQPGGSLKLSCAASGFTFSGSSMHWVRQASGKGLDWVGRIRSKANSYATAYAASVIGRFTISRDDSKNTAYLQMNSLKTEDTAVYYCTTSVATTLTDYYGMDVWGQGTTVTVSS
VL: EIVLTQSPATLSLSPGERATLSCRASQSVSSYLAWYQQKPGQAPRLLIYDASNRATGIPARFSGSGSGTDFTLTISSLEPEDFAVYYCQQRSNWPPFTFGPGTKVDIK
notes: also called Mab09; 4H11 IgG1
With B2, the binding result in [1] and in test [2] was “binds” throughout. Also, the “IC50, IL-6 secretion by HFFF2 human fibroblasts, cytokine at 25 ng/ml” value with human IL-17A homodimer [3] came to 108 nM. Also, the “IC50, IL-6 secretion … at 17.5 ng/ml” value in test [4] was 810 nM. The “IC50, IL-6 secretion … at 5 ng/ml” value with human IL-17A homodimer [5] worked out at 87 nM.

B3: 30D12BF antibody (antibody, V domains shown)
VH: QVQLVQSGAEVKKPGASVKVSCKASGYTFTSYDINWVRQATGQGLEWMGWLNPDSGVIRYAQKFQGRVTMTRDTSISTAYMELSSLRSEDTAVYYCAREWFGELPSYYFYSGMDVWGQGTTVTVSS
VL: EIVLTQSPATLSLSPGERATLSCRASQSVSSYLAWYQQKPGQAPRLLIYDASNRATGIPARFSGSGSGTDFTLTISSLEPEDFAVYYCQQRSNWPPTFGPGTKVDIK
Turning to B3, the “IC50, IL-6 secretion by HFFF2 human fibroblasts, cytokine at 25 ng/ml” value in the test with human IL-17A homodimer [3] was 3 nM; in test [6] it was 5.7 nM. Further, the “IC50, IL-6 secretion by MEF cells, cytokine at 25 ng/ml” value in test [7] came out at 13 nM; in test [8], 130 nM; with rat IL-17F homodimer, 30 nM. Besides, the results for the “IC50, IL-6 secretion … at 5 ng/ml” value (with rat IL-17A homodimer; with human IL-17A homodimer [5]; in [9]) were more than 1 µM, 1.6 nM and 2.5 nM, respectively. Moreover, in test [4], the “IC50, IL-6 secretion … at 17.5 ng/ml” value came out at 27 nM.

B4: 38B1 antibody (antibody, IgG1, V domains shown)
VH: EVQLVESGGGLVQPGRSLRLSCAASGFTFDDFAMHWVRQAPGKGLEWVSGINWNSGSIGYADSVKGRFTISRDNAKNSLYLQMNSLRAEDTALYYCAKDIAAAGEFYFDMDVWGQGTTVTVSS
VL: EIVLTQSPATLSLSPGERATLSCRASQSVSSYLAWYQQKPGQAPRLLIYDASNRATGIPARFSGSGSGTDFTLTISSLEPEDFAVYYCQQRSNWPPTFGQGTKLEIK
notes: also called 38B1 IgG1
For the molecule B4, the binding result in test [1] and in test [2] was “binds” in each case. The “IC50, IL-6 secretion … at 17.5 ng/ml” value in test [4] came to 910 nM. In the test with human IL-17A homodimer [5], the “IC50, IL-6 secretion … at 5 ng/ml” value is more than 1000 nM.
